Data reported in patent publication US20190256595A1 (INSTITUT NATIONAL DE LA SANT ET DE LA RECHERCH M DICAL …, published 2019).

Assays:
[1] = biological target: T1, CD160 GPI-anchored isoform expressed on CHO cells (human, UniProt O95971 26-160, GPI anchor at the C terminus end); assay: flow cytometry on CHO-CD160-GPI cells
T1 construct: also called CHO-CD160-GPI
T1 sequence: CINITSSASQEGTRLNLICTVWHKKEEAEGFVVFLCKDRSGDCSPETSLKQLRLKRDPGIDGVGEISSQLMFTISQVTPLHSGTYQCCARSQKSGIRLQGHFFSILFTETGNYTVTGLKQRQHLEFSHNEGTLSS
Protocol: (§1) CHO and HEK transfected cells were labelled with the anti-CD160-GPI mAb CL1-R2 or BY55, the fully human A12 or B6 antibody or their corresponding isotypic control IgG. […] Cell acquisition was performed on a CytoFlex cytometer and results were analysed with FlowJo software.
(§2) After selection on HEK-CD160TM cells, A12 and B6 specificity for CD160TM isoform was first verified by flow cytometry on both CD160-GPI and CD160TM expressing transfectants. As shown on FIG. 1, a positive labelling was obtained with A12 and B6 antibodies on HEK-CD160TM cells but not on CHO-CD160-GPI cells. Conversely, the anti-CD160-GPI mAb CL1-R2 or BY55 gave a positive labelling only on CD160-GPI-expressing cells, ruling out the possibility that A12 and B6 negativity was linked to the non-expression of CD160-GPI on CHO transfectants.

[2] = biological target: T2, Flag-tagged CD160-TM isoform expressed on HEK cells (human); assay: flow cytometry on HEK-CD160TM cells
T2 construct: In the immunoprecipitation the protein came from a 1% NP40 lysate of these cells; Bands were read as mono-, di- and quadrimeric forms; also called HEK-CD160TM; Flag-tagged CD160TM receptor; not shown: Flag tag
T2 chain: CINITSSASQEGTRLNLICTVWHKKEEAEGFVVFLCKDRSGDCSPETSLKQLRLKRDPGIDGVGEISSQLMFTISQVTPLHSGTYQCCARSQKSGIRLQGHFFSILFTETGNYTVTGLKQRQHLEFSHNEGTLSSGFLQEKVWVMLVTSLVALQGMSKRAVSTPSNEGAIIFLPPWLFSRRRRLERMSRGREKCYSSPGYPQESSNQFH
Protocol: as §1, §2

[3] = biological target: T3, CD160-TM isoform (CD160 transmembrane isoform) (human); assay: flow cytometry on IL2-activated human PBMC, gated CD3-CD56+ NK cells
T3 chain: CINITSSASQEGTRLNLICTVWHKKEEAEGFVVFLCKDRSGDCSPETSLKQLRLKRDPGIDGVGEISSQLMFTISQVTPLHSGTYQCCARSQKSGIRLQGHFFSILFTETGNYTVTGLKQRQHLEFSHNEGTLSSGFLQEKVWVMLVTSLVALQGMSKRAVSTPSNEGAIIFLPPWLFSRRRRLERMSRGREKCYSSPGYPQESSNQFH
Protocol: as §1
For PBMC, CD160 labelling was performed as above. Following washes and addition of normal mouse serum, cells were incubated with a mix of CD8-FITC, CD56-PCS, CD3-APC and CD4-PC7 mAbs. After cell acquisition, analyses were performed to distinguish the CD3⁺CD4⁺ and CD3⁺CD8⁺ T lymphocytes, and the CD3⁻CD56⁺ NK cells within the lymphocytes population.

[4] = biological target: T4, recombinant soluble CD160-His Tag (human, UniProt O95971 26-160); assay: sandwich ELISA: coated antibody, soluble CD160-His, anti-His-HRP
T4 construct: also called sCD160; CD160 soluble isoform; not shown: His tag
T4 sequence: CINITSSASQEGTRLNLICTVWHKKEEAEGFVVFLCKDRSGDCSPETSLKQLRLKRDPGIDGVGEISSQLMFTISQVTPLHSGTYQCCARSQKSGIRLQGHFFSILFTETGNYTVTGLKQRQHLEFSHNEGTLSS
Protocol: FIG. 4: sCD160 is recognized by the antibodies CL1-R2, R&D 6700 and RB312 but not A12. 1 ug per well of antibody was coated overnight on a 96 well maxisorb plate. After saturation with PBS-5%BSA, lOng of recombinant soluble CD160-His Tag were added to each well and incubated 2h at room temperature. After washing, revelation was done with anti-His-HRP then TMB substrate.

[5] = biological target: T2, Flag-tagged CD160-TM isoform expressed …; assay: immunoprecipitation from HEK-CD160TM lysate, anti-Flag Western blot, non-reducing
Protocol: FIG. 3: Assessment of A12 specificity by immunoprecipitation. Post-nuclear lysates were prepared from HEK-CD160TM cells and subjected to immunoprecipitation with either mouse (mu IgG) or human (hu Ig) isotypic control IgG, chimeric murine A12 (mu A12) or fully human A12 (hu A12) antibody. […] Arrows indicate CD160TM-related signals.
HEK-CD160TM cells, that express a Flag-tagged version of CD160TM isoform, were lysed in 1% NP40 lysis buffer. Post-nuclear lysates were prepared and subjected to immuno-precipitation with the fully human A12 antibody or mouse chimeric A12. Human and mouse IgG were used as negative controls, respectively. Immune complexes were further collected with protein G Sepharose beads. Following washes, non-reducing sample buffer (devoid of reducing agent) was added and samples were finally heat-denatured. Proteins were separated by SDS-10% PAGE, electrically transferred on a nitrocellulose membrane and subjected to immuno-blotting with and anti-Flag mAb plus HRP-coupled goat anti-mouse IgGs. Revelation was performed by enhanced chemiluminescence and images acquired with an ImageQuant LAS device.

[6] = biological target: T4, recombinant soluble CD160-His Tag; assay: sandwich ELISA: coated antibody, soluble CD160-His, anti-His-HRP (data not shown)

Row | Binder | binding result [1] | binding result [2] | binding result [3] | binding result [4] | binding result [5] | binding result [6]
1 | A12 antibody (fully human A12 antibody) (antibody, human IgG1, V domains shown, Fully human aglycosylated antibody selected by phage display on HEK-CD160TM cells; also called hu A12) VH: EVQLVESGGSLVKPGGSLRLSCAASGFTFSNYSMNWVRQAPGKGLEWISYIYGSSRYISYADFVKGRFTISRDNATNSLYLQMNSLRAEDTAVYYCVRSYYGGMDVWGRGTLVTVSS VL: QSVLTQPASVSGSPGQSITISCAGTSSDVGGYYGVSWYQQHPGKAPKLMIYYDSYRPSGVSNRFSGSKSGNTASLTISGLQAEDEADYYCSSSTYYSTRVFGGGTKLEK | no binding | binds | binds | no binding |  | 
2 | murine chimeric version of A12 antibody (antibody, V domains shown, also called muA12; mu A12) VH: EVQLVESGGSLVKPGGSLRLSCAASGFTFSNYSMNWVRQAPGKGLEWISYIYGSSRYISYADFVKGRFTISRDNATNSLYLQMNSLRAEDTAVYYCVRSYYGGMDVWGRGTLVTVSS VL: QSVLTQPASVSGSPGQSITISCAGTSSDVGGYYGVSWYQQHPGKAPKLMIYYDSYRPSGVSNRFSGSKSGNTASLTISGLQAEDEADYYCSSSTYYSTRVFGGGTKLEK |  |  |  |  | binds | 
3 | B6 antibody (fully human B6 antibody) (antibody, human IgG1, V domains shown, From the same phage display selection as A12) VH: EVQLVESGGSLVKPGGSLRLSCAASGFTFSNYYMNWVRQAPGKGLEWISGIYGSSRYINYADFVKGRFTISRDNATNSLYLQMNSLRAEDTAVYYCVRSYYGGMDVWGRGTLVTVSS VL: QSVLTQPASVSGSPGQSITISCAGTSSDVGGYSYVSWYQQHPGKAPKLMIYYDSYRPSGVSNRFSGSKSGNTASLTISGLQAEDEADYYCSSYTYYSTRVFGGGTKLEK | no binding | binds |  |  |  | no binding
